Read-outs that look alike come from different tables or passages of the source.
Key:
androgen receptor (rAR) [1] = molecular target: T1, androgen receptor (rAR) (rat, UniProt P15207 1-902); experiment: EMSA
androgen receptor (rAR) [2] = molecular target: T1, androgen receptor (rAR); experiment: EMSA; remark: listed apart in the source

T1 sequence (P15207 whole entry S389L): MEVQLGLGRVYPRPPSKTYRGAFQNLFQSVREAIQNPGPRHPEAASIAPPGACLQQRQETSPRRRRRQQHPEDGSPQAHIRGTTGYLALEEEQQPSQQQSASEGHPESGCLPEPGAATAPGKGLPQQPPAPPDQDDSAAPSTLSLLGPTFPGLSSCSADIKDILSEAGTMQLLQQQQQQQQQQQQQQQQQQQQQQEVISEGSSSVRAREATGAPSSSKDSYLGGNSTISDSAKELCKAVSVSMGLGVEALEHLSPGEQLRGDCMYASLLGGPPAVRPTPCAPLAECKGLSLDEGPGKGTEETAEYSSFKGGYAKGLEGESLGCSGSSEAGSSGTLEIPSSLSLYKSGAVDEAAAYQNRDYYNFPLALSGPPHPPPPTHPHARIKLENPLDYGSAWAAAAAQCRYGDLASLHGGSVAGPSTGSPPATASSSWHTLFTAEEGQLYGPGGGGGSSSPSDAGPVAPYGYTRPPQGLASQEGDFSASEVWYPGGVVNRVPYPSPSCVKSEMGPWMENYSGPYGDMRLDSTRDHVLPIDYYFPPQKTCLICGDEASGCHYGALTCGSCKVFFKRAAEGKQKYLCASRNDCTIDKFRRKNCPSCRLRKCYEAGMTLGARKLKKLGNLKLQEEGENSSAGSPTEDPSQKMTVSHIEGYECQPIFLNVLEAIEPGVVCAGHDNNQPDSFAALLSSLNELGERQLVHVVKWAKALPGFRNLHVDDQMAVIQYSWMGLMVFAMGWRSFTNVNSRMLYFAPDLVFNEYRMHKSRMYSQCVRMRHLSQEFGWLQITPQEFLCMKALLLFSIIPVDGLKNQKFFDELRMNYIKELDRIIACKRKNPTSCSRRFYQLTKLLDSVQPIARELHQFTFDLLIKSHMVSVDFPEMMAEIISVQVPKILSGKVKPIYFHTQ

B1: HRE consensus (dsDNA)
DNA 1: ACGGGTGGAACGCGGTGTTCTTTTGGCACG
DNA 2: CGTGCCAAAAGAACACCGCGTTCCACCCGT
Question: Does B1 bind (androgen receptor (rAR) [1])?
Answer: binds

B2: -499/-484 HRE (dsDNA)
DNA 1: ATCTAGAATAATTGGTATTAGAACAGGCTGCTTAAAACAGTTAA
DNA 2: TTAACTGTTTTAAGCAGCCTGTTCTAATACCAATTATTCTAGAT
Question: Does B2 bind (androgen receptor (rAR) [2])?
Answer: no binding

B3: -159/-144 HRE (dsDNA)
DNA 1: GGGCTTGGCATGTTCTGTTAGCACTCTTTTAGATT
DNA 2: AATCTAAAAGAGTGCTAACAGAACATGCCAAGCCC
Question: Does B3 bind (androgen receptor (rAR) [2])?
Answer: no binding
